From patent US20260217847A1 (NANJING REGENECORE BIOTECH, published 2026)

Tests used:
Test in all cases: peptide ELISA on streptavidin plate, 2 µg/mL 2H7-hFc, anti-hFc HRP
TfR1 peptide D1-helix1 = target: T1, TfR1 peptide D1-helix1 (human)
T1 construct: Synthetic peptide, captured on a streptavidin-coated plate; also called peptide No. 1
T1 peptide: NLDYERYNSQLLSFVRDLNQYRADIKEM
Procedure: (§1) The peptide-antibody binding was identified using a standard enzyme-linked immunosorbent assay (ELISA). The steps were as follows: [0244] (1) The wells of an ELISA plate were coated with 100 μL of 2 μg/mL SA (streptavidin) protein at 4° C. overnight. […] (2) The wells of the ELISA plate were washed with PBST buffer. After adding 200 μL of 2% BSA, the plate was blocked at 37° C. for 1 h. […] (3) The peptide protein was diluted to 2 μg/mL, and a negative control and a positive control (AVI-tagged TfR1 protein) were included. Each experiment contained duplicate controls. […] (4) The wells of the ELISA plate were washed multiple times with PBST buffer. Then, 100 μL of the diluted peptide protein solution from step (3) was added into wells in duplicate, and along with the negative control wells, incubated at 37° C. for 1 h. [0248] (5) The wells of the ELISA plate were washed multiple times with PBST buffer. […] [0249] (6) The wells of the ELISA plate were washed multiple times with PBST buffer. Then, 100 μL of 2× anti-hFc HRP secondary antibody was added, and the plate was incubated at 37° C. for 1 h. [0250] (7) The wells of the ELISA plate were washed multiple times with PBST buffer. After adding 100 μL of TMB chromogenic solution, the reaction was carried out in the dark at room temperature for 30 min. [0251] (8) 100 μL of stop solution (1 mol/L HCl) was added to terminate the reaction. OD450 was measured using a microplate reader, and the readings were recorded.

TfR1 peptide D1-helix4 = target: T2, TfR1 peptide D1-helix4 (human)
T2 construct: Synthetic peptide, captured on a streptavidin-coated plate; also called peptide No. 3
T2 peptide: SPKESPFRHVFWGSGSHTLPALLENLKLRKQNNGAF
Procedure: as §1

TfR1 peptide D3-helix1 = target: T3, TfR1 peptide D3-helix1 (human)
T3 construct: Synthetic peptide, captured on a streptavidin-coated plate; also called peptide No. 5
T3 peptide: RLYWDDLKRKLSEKLDSTD
Procedure: as §1

TfR1 peptide D3-helix3 = target: T4, TfR1 peptide D3-helix3 (human)
T4 construct: Synthetic peptide, captured on a streptavidin-coated plate; also called peptide No. 7
T4 peptide: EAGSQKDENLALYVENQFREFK
Procedure: as §1

[1] = target: T5, TfR1 peptide D3-helix1-helix2 (human)
T5 construct: Synthetic peptide, captured on a streptavidin-coated plate; also called peptide No. 8
T5 peptide: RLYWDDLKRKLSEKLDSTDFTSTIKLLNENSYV
Procedure: as §1

TfR1 peptide D3-loop1 = target: T6, TfR1 peptide D3-loop1 (human)
T6 construct: Synthetic peptide, captured on a streptavidin-coated plate; also called peptide No. 11
T6 peptide: LSKVWRDQHFV
Procedure: as §1

TfR1 peptide D2-loop1 = target: T7, TfR1 peptide D2-loop1 (human)
T7 construct: Synthetic peptide, captured on a streptavidin-coated plate; also called peptide No. 12
T7 peptide: GTKKDFEDLY
Procedure: as §1

TfR1 peptide D2-loop1-K = target: T8, TfR1 peptide D2-loop1-K (human)
T8 construct: Synthetic peptide, captured on a streptavidin-coated plate; also called peptide No. 13
T8 peptide: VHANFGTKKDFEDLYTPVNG
Procedure: as §1

[2] = target: T9, TfR1 peptide D2-loop1-loop2 (human)
T9 construct: Synthetic peptide, captured on a streptavidin-coated plate; also called peptide No. 15
T9 peptide: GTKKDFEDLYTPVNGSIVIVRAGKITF
Procedure: as §1

TfR1 peptide D1-helix3 = target: T10, TfR1 peptide D1-helix3 (human)
T10 construct: Synthetic peptide, captured on a streptavidin-coated plate; also called peptide No. 16
T10 peptide: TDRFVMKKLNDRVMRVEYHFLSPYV
Procedure: as §1

TfR1 peptide D1-helix5 = target: T11, TfR1 peptide D1-helix5 (human)
T11 construct: Synthetic peptide, captured on a streptavidin-coated plate; also called peptide No. 17
T11 peptide: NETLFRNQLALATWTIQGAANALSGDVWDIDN
Procedure: as §1

[3] = target: T12, TfR1 peptide D1-helix1-helix2 (human)
T12 construct: Synthetic peptide, captured on a streptavidin-coated plate; also called peptide No. 18
T12 peptide: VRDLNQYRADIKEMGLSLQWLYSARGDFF
Procedure: as §1

[4] = target: T13, TfR1 peptide D1-helix3-helix4 (human)
T13 construct: Synthetic peptide, captured on a streptavidin-coated plate; also called peptide No. 19
T13 peptide: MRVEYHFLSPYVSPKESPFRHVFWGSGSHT
Procedure: as §1

- OD450 (TfR1 peptide D1-helix1): 0.21
- OD450 (TfR1 peptide D1-helix4): 1.49
- P/N (TfR1 peptide D1-helix4): 9.5
- OD450 (TfR1 peptide D3-helix1): 0.147
- OD450 (TfR1 peptide D3-helix3): 0.155
- OD450 [1]: 0.274
- OD450 (TfR1 peptide D3-loop1): 0.17
- OD450 (TfR1 peptide D2-loop1): 0.176
- OD450 (TfR1 peptide D2-loop1-K): 0.195
- OD450 [2]: 1.12
- P/N [2]: 6.4
- OD450 (TfR1 peptide D1-helix3): 0.974
- P/N (TfR1 peptide D1-helix3): 5
- OD450 (TfR1 peptide D1-helix5): 0.206
- OD450 [3]: 0.977
- P/N [3]: 3.5
- OD450 [4]: 0.508
- P/N [4]: 4.7
B1: anti-humanized TfR1 single-domain antibody-Fc fusion antibody 2H7-hFC1 (Fc fusion)
chain (part 1 of 2): ESGGGLVQPGESLRLSCVASGSIWSIYTMGWYRQAPGKQRDFVASITGDSTRTLESVKDRFIISRDNTKNTLYLQMNSLKPEDTAVYYCQAITSLGEYWGQGTQVTVSS
notes: Expressed in 293F cells, Protein A purified; labelled with pHrodo iFL Green in the internalization assays; also called VHH-hFc; not shown: human IgG1 Fc: hinge, CH2 and CH3 regions, from vector RJK-V4-hFC1; limits and junction (multiple cloning site) not stat
